What all share (test): cell-based or functional assay
Test [1] has as its target T1, human CD40 on primary human B cells or human monocyte-derived dendritic cells (human, UniProt P25942 21-277).
Test [2] has as its target T1, human CD40 on primary human B cells or …. This is another data set of the same source.
For test [3] the target is unchanged. This is another data set of the same source.
For test [4] the target is unchanged. The source holds these as a separate data set.

T1 sequence (P25942 21-277 H80K/K81H limits assumed): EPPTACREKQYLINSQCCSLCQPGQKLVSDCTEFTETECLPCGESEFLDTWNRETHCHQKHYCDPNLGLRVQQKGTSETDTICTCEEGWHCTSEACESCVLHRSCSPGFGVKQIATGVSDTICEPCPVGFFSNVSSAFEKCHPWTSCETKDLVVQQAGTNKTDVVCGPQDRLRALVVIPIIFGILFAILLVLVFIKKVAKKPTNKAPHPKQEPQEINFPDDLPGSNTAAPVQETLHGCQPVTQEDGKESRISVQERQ

B1: SMA104 (designed binder)
chain: MRGSHHHHHHGSDLGEKLLVAALYGQDDEVRELLKAGADVNAKDQWGLTPLHKAALQGHLEIVEVLLKAGADVNAKDERGHTPLHWAARFGHLEIVEVLLKAGADVNAQDQKGYTPADLAALWGHEDIAEVLQKAAGSPTPTPTTPTPTPTTPTPTPTGSDLGKKLLQAARAGQLDEVRELLKAGADVNAKDTWGFTPLHIAAESGHLEIVEVLLKAGADVNAKDVQGRTPLHIAAHSGHLEIVEVLLKAGADVNAKDFRGWTPLHLAAWSGHLEIVEILLKAGADVNAQDKSGKTPADLAARAGHQDIAEVLQKAAGSPTPTPTTPTPTPTTPTPTPTGSDLGKKLLQAARAGQLDEVRELLKAGADVNAKDTWGFTPLHIAAESGHLEIVEVLLKAGADVNAKDVQGRTPLHIAAHSGHLEIVEVLLKAGADVNAKDFRGWTPLHLAAWSGHLEIVEILLKAGADVNAQDKSGKTPADLAARAGHQDIAEVLQKAA
As for B1, in test [1], the “Efficacy [MFI at highest dose], MFI CD86, human B cells with FAP-CHO cells, w/o HSA” value was determined as 6270 MFI and the “Efficacy at highest dose, % CD86, human B cells with FAP-CHO cells, w/o HSA” value turned out to be 86.8%. In test [2], the “Efficacy [MFI at highest dose], MFI CD86, human B cells with WT-CHO cells (no FAP), w/o HSA” value was 252 MFI and the “Efficacy at highest dose, % CD86, human B cells with WT-CHO cells (no FAP), w/o HSA” value is 46%. Besides, in test [3], the “EC50, % CD86, human B cells with FAP-CHO cells, w/o HSA” value (shortened to “EC50, % CD86, human B cells … w/o HSA”) is 0.23 nM and the “EC50, MFI CD86, human B cells with FAP-CHO cells, w/o HSA” value (shortened to “EC50, MFI CD86, human B cells … w/o HSA”) came out at 0.74 nM. In test [4], the “fold increase of efficacy against SMA014, CD86 upregulation on human B cells with FAP expressing CHO cells” value stood at 2 fold and the “fold increase of potency against SMA014, CD86 upregulation on human B cells with FAP expressing CHO cells” value worked out at 20 fold.

B2: SMA087 (designed binder)
chain: MRGSHHHHHHGSDLGKKLLEAARAGQDDEVRELLKAGADVNAKDYFSHTPLHLAARNGHLKIVEVLLKAGADVNAKDFAGKTPLHLAAADGHLEIVEVLLKAGADVNAQDIFGKTPADIAADAGHEDIAEVLQKAAGSPTPTPTTPTPTPTTPTPTPTGSDLGEKLLVAALYGQDDEVRELLKAGADVNAKDQWGLTPLHKAALQGHLEIVEVLLKAGADVNAKDERGHTPLHWAARFGHLEIVEVLLKAGADVNAQDQKGYTPADLAALWGHEDIAEVLQKAAGSPTPTPTTPTPTPTTPTPTPTGSDLGKKLLQAARAGQLDEVRELLKAGADVNAKDTWGFTPLHIAAESGHLEIVEVLLKAGADVNAKDVQGRTPLHIAAHSGHLEIVEVLLKAGADVNAKDFRGWTPLHLAAWSGHLEIVEILLKAGADVNAQDKSGKTPADLAARAGHQDIAEVLQKAA
Take B2: in test [1], the “Efficacy [MFI at highest dose], MFI CD86, human B cells with FAP-CHO cells, w HSA” value came out at 799 MFI; the “Efficacy [MFI at highest dose], MFI CD86, human B cells with FAP-CHO cells, w/o HSA” value was found to be 1640 MFI; the “Efficacy at highest dose, % CD86, human B cells with FAP-CHO cells, w HSA” value was 27%; the “Efficacy at highest dose, % CD86, human B cells with FAP-CHO cells, w/o HSA” value came to 43.4%. Moreover, in test [2], the “Efficacy [MFI at highest dose], MFI CD86, human B cells with WT-CHO cells (no FAP), w HSA” value is 299 MFI; the “Efficacy [MFI at highest dose], MFI CD86, human B cells with WT-CHO cells (no FAP), w/o HSA” value came to 291 MFI; the “Efficacy at highest dose, % CD86, human B cells with WT-CHO cells (no FAP), w HSA” value was 13.7%; the “Efficacy at highest dose, % CD86, human B cells with WT-CHO cells (no FAP), w/o HSA” value turned out to be 12.5%. For the same molecule, in test [3], the “EC50, % CD86, human B cells with FAP-CHO cells, w HSA” value was 72.3 nM; the “EC50, % CD86, human B cells … w/o HSA” value came to 11.4 nM; the “EC50, MFI CD86, human B cells with FAP-CHO cells, w HSA” value is 52 nM; the “EC50, MFI CD86, human B cells … w/o HSA” value worked out at 28.9 nM.

B3: SMA105 (designed binder)
chain: MRGSHHHHHHGSDLGEKLLVAALYGQDDEVRELLKAGADVNAKDQWGLTPLHKAALQGHLEIVEVLLKAGADVNAKDERGHTPLHWAARFGHLEIVEVLLKAGADVNAQDQKGYTPADLAALWGHEDIAEVLQKAAGSPTPTPTTPTPTPTTPTPTPTGSDLGKKLLQAARAGQLDEVRELLKAGADVNAKDTWGFTPLHIAAESGHLEIVEVLLKAGADVNAKDVQGRTPLHIAAHSGHLEIVEVLLKAGADVNAKDFRGWTPLHLAAWSGHLEIVEILLKAGADVNAQDKSGKTPADLAARAGHQDIAEVLQKAAGSPTPTPTTPTPTPTTPTPTPTGSDLGKKLLQAARAGQLDEVRELLKAGADVNAKDTWGFTPLHIAAESGHLEIVEVLLKAGADVNAKDVQGRTPLHIAAHSGHLEIVEVLLKAGADVNAKDFRGWTPLHLAAWSGHLEIVEILLKAGADVNAQDKSGKTPADLAARAGHQDIAEVLQKAAGSPTPTPTTPTPTPTTPTPTPTGSDLGKKLLQAARAGQLDEVRELLKAGADVNAKDTWGFTPLHIAAESGHLEIVEVLLKAGADVNAKDVQGRTPLHIAAHSGHLEIVEVLLKAGADVNAKDFRGWTPLHLAAWSGHLEIVEILLKAGADVNAQDKSGKTPADLAARAGHQDIAEVLQKAA
B3: in test [1], the “Efficacy [MFI at highest dose], MFI CD86, human B cells with FAP-CHO cells, w/o HSA” value turned out to be 5560 MFI and the “Efficacy at highest dose, % CD86, human B cells with FAP-CHO cells, w/o HSA” value amounted to 87.2%. In addition, in test [2], the “Efficacy [MFI at highest dose], MFI CD86, human B cells with WT-CHO cells (no FAP), w/o HSA” value is 672 MFI and the “Efficacy at highest dose, % CD86, human B cells with WT-CHO cells (no FAP), w/o HSA” value was 69.2%. Moreover, in test [3], the “EC50, % CD86, human B cells … w/o HSA” value amounted to 0.11 nM and the “EC50, MFI CD86, human B cells … w/o HSA” value came to 0.33 nM.

Source of the values: patent US20210395318A1 (Molecular Partners, published 2021).
